{"source": "paper PMC5720721", "about": "“A thermal after-effect of UV irradiation of muscle glycogen phosphorylase b” (PLoS ONE, 2017)", "proteins": {"B1": {"name": "glycogen phosphorylase b from rabbit skeletal muscle (enzyme, UniProt P00489 1-843, looked up)", "chain": "MSRPLSDQEKRKQISVRGLAGVENVTELKKNFNRHLHFTLVKDRNVATPRDYYFALAHTVRDHLVGRWIRTQQHYYEKDPKRIYYLSLEFYMGRTLQNTMVNLALENACDEATYQLGLDMEELEEIEEDAGLGNGGLGRLAACFLDSMATLGLAAYGYGIRYEFGIFNQKICGGWQMEEADDWLRYGNPWEKARPEFTLPVHFYGRVEHTSQGAKWVDTQVVLAMPYDTPVPGYRNNVVNTMRLWSAKAPNDFNLKDFNVGGYIQAVLDRNLAENISRVLYPNDNFFEGKELRLKQEYFVVAATLQDIIRRFKSSKFGCRDPVRTNFDAFPDKVAIQLNDTHPSLAIPELMRVLVDLERLDWDKAWEVTVKTCAYTNHTVLPEALERWPVHLLETLLPRHLQIIYEINQRFLNRVAAAFPGDVDRLRRMSLVEEGAVKRINMAHLCIAGSHAVNGVARIHSEILKKTIFKDFYELEPHKFQNKTNGITPRRWLVLCNPGLAEIIAERIGEEYISDLDQLRKLLSYVDDEAFIRDVAKVKQENKLKFAAYLEREYKVHINPNSLFDVQVKRIHEYKRQLLNCLHVITLYNRIKKEPNKFVVPRTVMIGGKAAPGYHMAKMIIKLITAIGDVVNHDPVVGDRLRVIFLENYRVSLAEKVIPAADLSEQISTAGTEASGTGNMKFMLNGALTIGTMDGANVEMAEEAGEENFFIFGMRVEDVDRLDQRGYNAQEYYDRIPELRQIIEQLSSGFFSPKQPDLFKDIVNMLMHHDRFKVFADYEEYVKCQERVSALYKNPREWTRMVIRNIATSGKFSSDRTIAQYAREIWGVEPSRQRLPAPDEKIP", "notes": "glycogen phosphorylase b, muscle form, rabbit skeletal muscle; Mr of the dimer printed as 194800 Da; also called Phb; intact Phb; source: purified from rabbit skeletal muscle"}}, "biological_target": "the molecule itself", "assay": "AUC; sedimentation velocity; native Phb and UV-Phb 0.75 mg/ml; 0.03 M Hepes, pH 6.8, 0.1 M NaCl; 20°C; rotor speed 52000 rpm; growing time (dose) of UV irradiation"}
{"protein": "B1", "values": [{"measurement": "stoichiometry N", "result": 2}]}
